{"source": "patent US20060234208A1", "about": "“Novel mechanism for hiv-1 entry into host cells and peptides inhibiting this mechanism” (priority 2002, published 2006)", "molecules": {"B1": {"name": "rTAT: recombinant TAT (TAT86 III B) protein (protein)", "chain": "MIPVDPRLEPWKHPGSQPKTACTNCYCKKCCFHCQVCFITKALGISYGRKKRRQRRRAHQNSQTHQASLSKQPTSQPRGDPTGPKE"}, "B2": {"name": "TATBasMut: GST-fusion TAT HXB2 variant with the mutations R-49,52,53,55,56,57-A (protein, UniProt P04608 1-86, looked up, variant R49A R52A R53A R55A R56A R57A)", "Protein Tat": "MEPVDPRLEPWKHPGSQPKTACTNCYCKKCCFHCQVCFITKALGISYGAKKAAQAAAAHQNSQTHQASLSKQPTSQPRGDPTGPKE", "modifications": "GST fusion", "notes": "GST-fusion TAT HXB2 variant with the mutations R-49,52,53,55,56,57-A"}, "B3": {"name": "TATCysMut: GST-fusion TAT HXB2 variant with the mutations C-22,25,27-A (protein, UniProt P04608 1-86, looked up, variant C22A C25A C27A)", "Protein Tat": "MEPVDPRLEPWKHPGSQPKTAATNAYAKKCCFHCQVCFITKALGISYGRKKRRQRRRAHQNSQTHQASLSKQPTSQPRGDPTGPKE", "modifications": "GST fusion", "notes": "GST-fusion TAT HXB2 variant with the mutations C-22,25,27-A"}}, "key": {"recombinant TAT protein": {"biological_target": "T1, recombinant TAT protein (Human immunodeficiency virus type 1 group M subtype B, UniProt P69697, G61N/P58A/P59H/S77P/V67A)", "T1 construct": "TAT86 (full-length); purchased The Centralized facility for AIDS Reagents, National Institute for Biological Standards and Controls (donor Immunodiagnostic)", "assay": "Binding of selected phage to rTAT-coated microwells", "design": "species or system HIV-1", "conditions": "single phage clones; BSA and insertless phage FdTet as negative controls", "text": "For this assay, we have tested single phage clones for binding rTAT-coated microwells, using an unrelated protein, the Bovine Serum Albumin (BSA), as a negative control. The result is shown in the graph, where ‘Transducing Units’ is a parameter indicating the number of bound phage. Binding of the phage to an insertless phage, FdTet, is shown as a negative control."}, "[1]": {"system": "TAT+/gp120-LV entry into C8166 cells", "assay": "TAT+/gp120-LV entry into C8166 cells after co-culture with U937/TAT cells (Examples IV and V)", "assay_type": "cell-based, HIV-1", "conditions": "4 h co-culture with U937/TAT cells; without protease inhibitors", "experimental": "(§1) Transduction with HIV-1 -derived lentivirus. Vector stocks were prepared by transient co-transfection of 293T cells with the following combinations of plasmids: pRRL.hPGK.GFP.SIN-18+pCMV.DR8.2+pMD.G (Naldini et al. (1996), supra) (VSV-G-LV) or pEnvHXB (Huang et al., J. Virol. 72 (1998), 8952-8960) (TAT+/gp120-LV); pRRL.hPGK.GFP.SIN-18+pCMV.DR8.74 +pRSV-Rev ((Dull et al. (1998), supra)+pEnvHXB (TAT/gp120 -LV). Vector concentration was determined by HIV-1 p24 Core profile ELISA following the manufacturer's instructions. The entry experiments were conducted on 10^5 cells per well of a 48-well plate in the presence of 8 μg/ml polybrene. The number of GFP-positive cells was analysed by FACS."}, "HIV-1 Ba-L": {"system": "HIV-1 Ba-L", "assay": "Infection of PBMC with HIV-1 strain Ba-L (Example VI)", "assay_type": "cell-based", "conditions": "PHA-stimulated PBMCs, 2 h infection; versus 100 μM control peptide; SEQ 4 and 44: 100-50-10 μM, SEQ 127: 1 μM-100-10 nM", "experimental": "This example is illustrated in FIG. 12. […] 4 (CSFINT), 44 (RDKVKK) and the complete gp120 region SEQ ID NO.127 (CSFNITTEIRDKVKK), where the entry experiment is performed with two strains of HIV-1 on peripheral blood cells (PBMCs) derived from healthy donors. In particular, strain III B uses CXCR4 as a co-receptor (X4) and Ba-L uses CCR5 (R5). […] In the graphs the percent inhibition of infection due to the peptides is shown, as compared to infection in the presence of 100 μM of a control peptide. PHA-stimulated PBMCs have been incubated with the peptides and immediately infected for 2 h at 37° C. This incubation time is sufficient to evaluate virus entry, by detecting the presence of early viral transcripts into the cytoplasm of infected cells. The peptide concentrations are as follows: SEQ ID NO.4 and 44: 100-50-10 μM; SEQ ID NO. 127: 1 μM-100-10 nM. In FIG. 12A is represented the effect of the peptides on the basal infection of both viral strains, in FIG. 1 2B the effect of the peptides on the infection following incubation with rTAT7 nM. A peptide-dependent inhibition of the basal infection by both HIV-1 strains is present already in the basal infection, reflecting the presence of TAT in the viral supernatants. In particular, these peptides are more efficient in reducing the basal infection by HIV-1 Ba-L than III B, reaching an inhibition from about 40% (SEQ ID NO. 44 and 127) to 70% (SEQ ID NO. 4). After cell incubation with 7 nM rTAT, the peptides have an enhanced efficacy in inhibiting the infection, and all of them show a dose-response effect, with similar outcomes on infections by both viral strains, confirming that their activity is related to the amount of membrane-bound TAT.\nCell cultures. U937 and C8166 cells were cultured in RPMI -1640 medium supplemented with 10% heat inactivated FCS; Phoenix cells were cultured in DMEM supplemented with 10% FCS; 293T cells were cultured in Iscove's medium supplemented with 10% FCS. […]\nInfection with wild type HIV-1. […] Amplified DNA was analyzed by Southern blot hybridization with a ^32P-labeled probe, and quantified by densitometry. […]"}, "[2]": {"biological_target": "recombinant TAT86 III B (rTAT) (HIV-1 strain III B) (UniProt P04608)"}, "[3]": {"biological_target": "TAT present in the viral supernatant of HIV-1 Ba-L (HIV-1 strain Ba-L)", "assay": "cell-based or functional assay"}, "[4]": {"system": "TAT+/gp120-LV entry into C8166 cells", "assay": "Effect of rTAT pre-incubation on TAT+/gp120-LV entry into C8166 cells", "assay_type": "cell-based, HIV-1", "conditions": "C8166 cells pre-incubated with rTAT for 15 min", "experimental": "This effect is reverted if the cells are pre-treated with Heparanase Ill. […] Again, this effect is reverted by pre-treating the cells with Heparanase IlI (FIG. 3B). To investigate the specificity of this effect, we have used lentiviral vectors pseudotyped with a different envelope, i.e. Vescicular Stomatitis Virus-G (VSV-G-LV), to transduce C8166 cells after co-culture with U937/TAT cells for different incubation times, or with the different U937/TAT clones for 2 h. […] Therefore, the increase in cell entry is strictly dependent not only on surface-bound TAT, but also on the presence of gp120. […]\nas §1"}, "gp120": {"biological_target": "gp120 (Human immunodeficiency virus type 1 group M subtype B, UniProt P03375)", "conditions": "GST-fusion TAT HXB2 variants", "text": "The following TATHXB2 variants were produced as GST-fusion proteins as described (Mitola, S. et al. Identification of specific molecular structures of human immunodeficiency virus type 1 TAT relevant for its biological effects on vascular endothelial cells. J Virol 74, 344-53 (2000): TAT86 (full-length), TAT72 (product of TAT first exon), TATBasMut (with the mutations R-49,52,53,55,56,57-A), TATCysMut (with the mutations C-22,25,27-A."}, "[5]": {"system": "TAT/gp120-LV entry into C8166 cells", "assay": "Effect of GST-TAT variants on TAT-/gp120-LV entry into C8166 cells", "assay_type": "cell-based, HIV-1", "conditions": "C8166 cells incubated with 7 μM GST-TAT variant for 15 min; compared to wild-type TAT86", "experimental": "as §1"}}, "data": [{"molecule": "CPDRKKKVVMVC [SEQ ID NO.3, phage insert selected from CX10C Phage Display library, tested as phage]", "values": [{"measurement": "phage binding to rTAT-coated microwells", "setting": "recombinant TAT protein", "value": "specifically bind recombinant TAT protein"}]}, {"molecule": "CSFNIT [SEQ ID NO. 4]", "values": [{"measurement": "blocking of virus entry at a concentration lower than 100 μM", "setting": "[1]", "value": "inefficient"}, {"measurement": "percent inhibition of basal infection", "setting": "HIV-1 Ba-L", "value": "~70", "unit": "%"}]}, {"molecule": "CSFNITTEIRDKVKK [SEQ ID NO. 127, Synthetic peptide corresponding to the selected region of gp120]", "values": [{"measurement": "percent inhibition of basal infection", "setting": "HIV-1 Ba-L", "value": "about 40%"}]}, {"molecule": "CTVECYFNCTPTC [SEQ ID NO.2, phage insert selected from CX3CX3CX3C Phage Display library, tested as phage]", "values": [{"measurement": "phage binding to rTAT-coated microwells", "setting": "recombinant TAT protein", "value": "specifically bind recombinant TAT protein"}]}, {"molecule": "RDKVKK [SEQ ID NO. 44]", "values": [{"measurement": "blocking of virus entry at a concentration lower than 100 μM", "setting": "[1]", "value": "inefficient"}, {"measurement": "percent inhibition of basal infection", "setting": "HIV-1 Ba-L", "value": "about 40%"}]}, {"molecule": "recombinant gp120 III B protein", "values": [{"measurement": "Kd", "setting": "[2]", "value": 8, "unit": "nM"}]}, {"molecule": "soluble peptide SEQ ID NO. 4 (CSFNIT)", "values": [{"measurement": "percent inhibition of basal infection of PBMCs by HIV-1 Ba-L", "setting": "[3]", "value": 70, "unit": "%"}]}, {"molecule": "soluble peptide SEQ ID NO. 44 (RDKVKK)", "values": [{"measurement": "percent inhibition of basal infection of PBMCs by HIV-1 Ba-L", "setting": "[3]", "value": 40, "unit": "%"}]}, {"molecule": "B1", "values": [{"measurement": "increase of TAT+/gp120-LV entry", "setting": "[4]", "value": "dose-response effect in increasing TAT+/gp120-LV entry"}]}, {"molecule": "B2", "values": [{"measurement": "binding to rgp120-coated microwells", "setting": "gp120", "value": "retaining the ability to bind gp120"}, {"measurement": "enhancement of TAT/gp120-LV entry into the cells", "setting": "[5]", "value": "ineffective in enhancing virus entry"}]}, {"molecule": "B3", "values": [{"measurement": "enhancement of TAT/gp120-LV entry into the cells", "setting": "[5]", "value": "could enhance vector entry"}]}]}
